Columns and labels:
calpain 1 = calpain 1 (UniProt P07384 1-714); test: enzyme inhibition kinetics (Calpain-Glo protease assay); cleavage of the calpain substrate Suc-LLVY-aminoluciferin, luminescence; calpastatin 0-80 nM, rhSLPI 0-640 nM; Ki by global curve fit in GraphPad Prism 4.03; conditions: both partners purified
calpain 2 = calpain 2 (UniProt P17655 20-700); test: as above; conditions: both partners purified

Chain of calpain 1 (P07384 2-714, chain 1 of 2): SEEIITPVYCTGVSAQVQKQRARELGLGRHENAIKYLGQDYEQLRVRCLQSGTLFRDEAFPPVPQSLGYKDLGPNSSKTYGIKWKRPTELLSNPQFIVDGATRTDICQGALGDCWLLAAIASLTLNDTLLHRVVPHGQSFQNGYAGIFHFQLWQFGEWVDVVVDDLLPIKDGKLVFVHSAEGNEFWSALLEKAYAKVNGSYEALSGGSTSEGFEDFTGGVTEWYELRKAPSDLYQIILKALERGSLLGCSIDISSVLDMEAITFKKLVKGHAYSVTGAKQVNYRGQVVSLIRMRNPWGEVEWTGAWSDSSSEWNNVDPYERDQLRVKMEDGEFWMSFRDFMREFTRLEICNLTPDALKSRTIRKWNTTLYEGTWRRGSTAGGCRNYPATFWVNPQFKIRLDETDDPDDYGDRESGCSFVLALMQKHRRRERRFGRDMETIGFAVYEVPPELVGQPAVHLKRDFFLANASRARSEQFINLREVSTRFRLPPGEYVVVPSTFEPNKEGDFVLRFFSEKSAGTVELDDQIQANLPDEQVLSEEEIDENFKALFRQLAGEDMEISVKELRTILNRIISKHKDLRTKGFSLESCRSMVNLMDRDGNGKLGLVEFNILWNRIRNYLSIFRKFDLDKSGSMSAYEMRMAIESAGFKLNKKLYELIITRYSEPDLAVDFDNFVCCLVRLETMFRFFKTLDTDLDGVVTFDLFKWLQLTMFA
Chain of calpain 1 (P04632 whole entry, chain 2 of 2, further chain): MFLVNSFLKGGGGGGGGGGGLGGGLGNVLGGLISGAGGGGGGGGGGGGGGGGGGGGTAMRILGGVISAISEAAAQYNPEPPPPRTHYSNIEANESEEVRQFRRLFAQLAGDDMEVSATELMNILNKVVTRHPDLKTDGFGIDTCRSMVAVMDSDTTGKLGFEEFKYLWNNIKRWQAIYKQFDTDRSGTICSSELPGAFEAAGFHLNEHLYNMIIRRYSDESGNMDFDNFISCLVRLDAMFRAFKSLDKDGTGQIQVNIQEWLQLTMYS

Ki (calpain 1): 5.55 nM
Ki (calpain 2): 1.55 nM
B1: calpastatin (natural protein)
chain: MNPTETKAIPVSQQMEGPHLPNKKKHKKQAVKTEPEKKSQSTKLSVVHEKKSQEGKPKEHTEPKSLPKQASDTGSNDAHNKKAVSRSAEQQPSEKSTEPKTKPQDMISAGGESVAGITAISGKPGDKKKEKKSLTPAVPVESKPDKPSGKSGMDAALDDLIDTLGGPEETEEENTTYTGPEVSDPMSSTYIEELGKREVTIPPKYRELLAKKEGITGPPADSSKPIGPDDAIDALSSDFTCGSPTAAGKKTEKEESTEVLKAQSAGTVRSAAPPQEKKRKVEKDTMSDQALEALSASLGTRQAEPELDLRSIKEVDEAKAKEEKLEKCGEDDETIPSEYRLKPATDKDGKPLLPEPEEKPKPRSESELIDELSEDFDRSECKEKPSKPTEKTEESKAAAPAPVSEAVCRTSMCSIQSAPPEPATLKGTVPDDAVEALADSLGKKEADPEDGKPVMDKVKEKAKEEDREKLGEKEETIPPDYRLEEVKDKDGKPLLPKESKEQLPPMSEDFLLDALSEDFSGPQNASSLKFEDAKLAAAISEVVSQTPASTTQAGAPPRDTSQSDKDLDDALDKLSDSLGQRQPDPDENKPMEDKVKEKAKAEHRDKLGERDDTIPPEYRHLLDDNGQDKPVKPPTKKSEDSKKPADDQDPIDALSGDLDSCPSTTETSQNTAKDKCKKAASSSKAPKNGGKAKDSAKTTEETSKPKDD
modifications: Paper names only 'calpastatin (endogenous calpain inhibitor)'. Supplier, species, isoform and limits are not stated. Full-length human canonical form is assumed; a commercial single inhibitory domain
